This note sets out measurements from US20120093813A1 (Pfizer, published 2012).

In assay [1] the target is T1, Notch1 chimeric antigen, Lin-A domain swapped with corresponding Notch2 domain.
T1 construct: Used as conditioned medium of transfected 293-F cells
Nature of the assay: ELISA, conditioned medium of chimeric antigen coated, 300 ng mAb per well. As to the method: (§1) For understanding the mechanism of action by Notch1-antagonist mAb, binding epitopes of Notch1-antagonist mAbs were analyzed by domain swap and ELISA binding assay. The Notch1-NRR-TM(−)/Fc protein was divided into six domains: EGF (including EGF35-36), Lin12-A (or Lin-A), Lin-B, Lin-C, heterodimerization domain-N (or HD-N) and HD-C (FIG. 5). Each of the domains were swapped for that corresponding to human Notch2 by PCR synthesis in a series of chimeric Notch1-NRR-TM(−)/Fc expression constructs. The domain-swap plasmids were transfected in Freestyle™ 293-F cells (Invitrogen, Inc., Calsbad, Calif.) using Freestyle™ Max Reagent (Invitrogen) as described above in Example 1. After being cultured for three days, the conditioned media was subjected to Western blot analysis and an ELISA binding assay by Notch1 mAbs.
(§2) In ELISA assay, the 100 microliters of the conditioned medium from the above antigen plasmids-transfected cell culture were loaded in each well of the 96-well plate, and plates were incubated at room temperature for 4 hours or 4° C. for overnight. The condition medium was then removed from the coated plates. For primary antibody binding, 300 ng of each mAb (Table 3) in 100 microliters of PBS was added to the coated well. The rest of the ELISA procedure is the same as described in Example 2.

Assay [2] addresses T2, Notch1 chimeric antigen, HD-C domain swapped with corresponding Notch2 domain.
T2 construct: Used as conditioned medium of transfected 293-F cells
The description is as above. The method, then:
as §1, §2

In assay [3] the target is T3, Notch1 chimeric antigen, Lin-C domain swapped with corresponding Notch2 domain.
T3 construct: Used as conditioned medium of transfected 293-F cells
The description is as above. The method, then:
as §1, §2

The target of assay [4] is T4, Notch1 chimeric antigen, EGF domain swapped with corresponding Notch2 domain.
T4 construct: Used as conditioned medium of transfected 293-F cells
The description is as above. As to the method:
as §1, §2

Assay [5] deals with T5, Notch1 chimeric antigen, HD-N domain swapped with corresponding Notch2 domain.
T5 construct: Used as conditioned medium of transfected 293-F cells
The assay is described as above. The method, then: as §1, §2

Another assay concerns the target Notch1 of HPB-ALL cells (human, UniProt P46531 19-2555). Nature of the assay: cell-based or functional assay.
Assay [6] addresses T6, N1-NRR-TM(-)/Fc fusion protein (human).
T6 construct: Secreted from 293-F cells, purified on protein G; also called Notch1-NRR-TM(-)/Fc; N1-NRR-TM(-)Fc protein; not shown: Human Fc of the Fc-fusion vector, fused C-terminal of the immunogen, plus any junction residues
T6 chain: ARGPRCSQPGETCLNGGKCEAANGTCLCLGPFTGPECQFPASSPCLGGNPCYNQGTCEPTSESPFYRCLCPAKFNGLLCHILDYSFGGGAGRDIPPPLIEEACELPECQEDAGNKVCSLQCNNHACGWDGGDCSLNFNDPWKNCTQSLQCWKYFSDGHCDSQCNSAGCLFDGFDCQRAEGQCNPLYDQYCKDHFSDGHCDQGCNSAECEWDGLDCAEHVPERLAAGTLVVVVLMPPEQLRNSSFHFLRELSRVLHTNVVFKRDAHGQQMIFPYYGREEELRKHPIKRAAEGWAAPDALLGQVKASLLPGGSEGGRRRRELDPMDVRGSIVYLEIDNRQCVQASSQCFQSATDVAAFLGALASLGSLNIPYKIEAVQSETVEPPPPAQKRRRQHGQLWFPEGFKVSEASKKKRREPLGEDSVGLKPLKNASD
Nature of the assay: SPR, Biacore 3000, N1-NRR-TM(-)Fc captured on Protein A, mAb injected. The method, then:
Protein A was amine-coupled at saturating levels onto the chip using a standard N-hydroxysuccinimide/ethyldimethylaminopropyl carbodiimide (NHS/EDC) chemistry. N1-NRR-TM(−)Fc protein (described in Example 1) was captured to the chip surface by Protein A in all three flow cells at 40, 13, 4 ug/ml. […] Dissociation was monitored for 20 minutes. The chip was regenerated after the last injection of each titration with two 30 second pulses of 100 mM phosphoric acid. Buffer cycles provided blanks for double-referencing the data, which were then fit globally to a simple binding model using Biaevaluation software v.4.1. Affinities were deduced from the quotient of the kinetic rate constants (KD=koff/kₒₙ).
In general terms: SPR reads the build-up and loss of mass on a sensor chip optically.

Assay [7] addresses T7, murine Notch1-NRRHD (mouse, UniProt Q01705 19-33; Q01705 1443-1723).
T7 construct: domain: Notch1-NRRHD (nucleotide 1-99);domain: Notch1-NRRHD (nucleotide 4327 to 5169); Nucleotide limits only; if counted from the start codon they are residues 1-33 and 1443-1723 (my conversion); Used as conditioned medium; also called MuN1-NRRHD; mouse Notch1
T7 sequence (looked up): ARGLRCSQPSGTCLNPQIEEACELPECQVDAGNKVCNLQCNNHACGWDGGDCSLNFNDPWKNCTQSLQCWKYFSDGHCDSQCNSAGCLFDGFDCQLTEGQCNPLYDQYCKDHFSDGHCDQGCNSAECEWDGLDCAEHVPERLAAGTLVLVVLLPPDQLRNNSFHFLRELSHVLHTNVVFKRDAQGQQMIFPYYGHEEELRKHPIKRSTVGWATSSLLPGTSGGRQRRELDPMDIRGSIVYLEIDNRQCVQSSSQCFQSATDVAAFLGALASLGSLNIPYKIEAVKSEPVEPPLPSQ
Briefly: heading printed under Table 3; it introduces the following ELISA experiment with human and murine Notch1-NRRHD. An excerpt:
(§3) We further made domain-swap chimeric Notch1-NRRHD expression constructs using the human Notch1-NRRHD sequence (Nucleotide 1-129 and 4338-5202, NCBI Accession # NM_{—}017617) as frame work, systematically exchanged the human Lin-A, Lin-B or HD-C domains with the corresponding mouse domains.

Assay [8] deals with T8, Notch1 chimeric antigen, HD-C domain swapped with murine sequence.
T8 construct: also called Mu/HD-C
Nature of the assay: ELISA on coated conditioned medium.
Excerpt: as §3

The target of the next assay is T9, human Notch1-NRRHD (human, UniProt P46531 19-43; P46531 1446-1733).
T9 construct: domain: Notch1-NRRHD (nucleotide 1-129);domain: Notch1-NRRHD (nucleotide 4338-5202); If counted from the start codon they are about residues 1-43 and 1447-1734 (my conversion); Used as conditioned medium; also called huN1-NRRHD; human Notch1 antigen
T9 sequence (looked up): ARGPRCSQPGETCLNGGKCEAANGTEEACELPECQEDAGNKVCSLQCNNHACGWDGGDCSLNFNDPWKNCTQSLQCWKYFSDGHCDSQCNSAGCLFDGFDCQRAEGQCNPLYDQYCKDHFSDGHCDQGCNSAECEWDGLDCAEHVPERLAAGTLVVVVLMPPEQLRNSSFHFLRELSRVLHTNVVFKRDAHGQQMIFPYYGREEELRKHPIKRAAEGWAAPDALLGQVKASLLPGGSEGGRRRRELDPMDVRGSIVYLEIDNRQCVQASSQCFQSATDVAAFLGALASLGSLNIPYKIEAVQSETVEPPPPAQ
Nature of the assay: ELISA on coated conditioned medium.
Excerpt: as §3
On the technique in general: An ELISA detects its analyte on a solid surface through an enzyme-linked reagent.

Assay [9] addresses T10, Notch1 chimeric antigen, Lin-B domain swapped with murine sequence.
T10 construct: also called Mu/Lin-B
Nature of the assay: ELISA on coated conditioned medium.
Excerpt: as §3

Assay [10] addresses T7, murine Notch1-NRRHD. Briefly: ELISA on coated conditioned medium.
Excerpt: as §3

Several values for one entry are separate records, joined by “and”; a condition that tells them apart may be missing. Equal entries are not always repeated.

B1: mouse monoclonal antibody N248A (antibody, IgG1, V domains shown)
VH: QVQLQQSGAELMKPGASVKISCKATGYTFSNYWMEWVKQRPGHGLEWIGEILPGRGRTNYNENFKGKATFTADTSSNTVYMQLNSLTSEDSAVYYCARFHSSAYYYTMDYWGQRTSVTVSS
VL: QAVVTQESALTTSPGETVTLTCRSSTGAVTTSNYANWVQEKPDHLFTGLIGGTNNRAPGIPARFSGSLIGDKAALTITGAQTEDEAIYFCALWYSNHWVFGGGTKLTVL
notes: treated as one antibody; also called mAb N248A; N248A1
Broadly, the Kd is a measure of binding affinity in units of concentration. Low readings indicate a tighter complex, high ones a looser complex. For orientation: koff means the first-order rate constant of dissociation. Turning to B1, the ELISA reading in [1] came out at 0.05; in assay [2] it was 0.04; in assay [3] it was 3.48; in assay [4], 3.51; in [5] it was 3.52; in assay [8] it was 3.17. Also, the ELISA reading worked out at 3.13 with human Notch1-NRRHD, 3.37 in [9] and 0.17 in the assay with murine Notch1-NRRHD [10]. Further, the “IC50 of cell growth inhibition, HPB-ALL cells, 7 days” value with Notch1 of HPB-ALL cells is ~0.78 µg/ml and ~5.2 nM. This molecule also gave a dissociation constant (Kd) in [6] of under 330 pM. Also, the koff in assay [6] was under 0.00017 s⁻¹. In addition, in the assay with murine Notch1-NRRHD [7], the binding result is given as “no binding”.
